Reference: PMC6078952, “Insights into the structure and dynamics of lysyl oxidase propeptide, a flexible protein with numerous partners” (Scientific Reports, 2018)

T1: Fibromodulin (UniProt P13605 19-376)
T1 construct: proteoglycan; source: bought: Sigma-Aldrich, F6921
T1 sequence (looked up): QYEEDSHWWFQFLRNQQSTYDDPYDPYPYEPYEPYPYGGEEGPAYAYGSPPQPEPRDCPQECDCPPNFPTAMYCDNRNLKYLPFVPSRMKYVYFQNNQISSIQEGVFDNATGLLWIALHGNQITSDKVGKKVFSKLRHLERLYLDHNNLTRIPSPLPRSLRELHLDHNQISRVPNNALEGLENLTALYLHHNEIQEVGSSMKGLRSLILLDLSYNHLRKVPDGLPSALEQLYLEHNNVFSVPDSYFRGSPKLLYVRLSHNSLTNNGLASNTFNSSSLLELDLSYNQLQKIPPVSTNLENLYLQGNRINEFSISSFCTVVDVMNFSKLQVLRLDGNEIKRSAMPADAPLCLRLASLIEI

T2: Transglutaminase-2 (TG-2), mutant Cys277Ser (UniProt P21980 1-687, Cys277Ser)
T2 construct: transglutaminase-2, UniProtKB P21980; source: bought: Zedira, T018
T2 sequence (looked up): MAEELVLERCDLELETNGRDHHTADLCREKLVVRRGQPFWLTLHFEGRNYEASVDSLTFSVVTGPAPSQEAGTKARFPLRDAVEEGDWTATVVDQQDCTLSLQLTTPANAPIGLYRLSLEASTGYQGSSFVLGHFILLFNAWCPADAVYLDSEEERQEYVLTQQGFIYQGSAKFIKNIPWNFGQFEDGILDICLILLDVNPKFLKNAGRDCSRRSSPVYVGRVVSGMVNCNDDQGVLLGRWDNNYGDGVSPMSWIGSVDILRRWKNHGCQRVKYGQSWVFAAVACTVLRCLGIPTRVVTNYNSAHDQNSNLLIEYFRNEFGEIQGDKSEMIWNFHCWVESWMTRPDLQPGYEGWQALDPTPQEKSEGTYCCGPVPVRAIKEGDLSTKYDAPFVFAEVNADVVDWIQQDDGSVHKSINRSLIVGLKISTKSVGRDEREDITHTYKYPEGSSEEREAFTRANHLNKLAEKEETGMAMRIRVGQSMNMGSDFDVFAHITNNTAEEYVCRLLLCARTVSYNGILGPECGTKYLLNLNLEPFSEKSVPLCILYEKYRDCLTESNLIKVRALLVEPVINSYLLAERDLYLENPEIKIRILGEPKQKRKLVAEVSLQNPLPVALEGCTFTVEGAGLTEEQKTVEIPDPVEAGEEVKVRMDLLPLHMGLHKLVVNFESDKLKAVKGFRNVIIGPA

T3: Lysyl oxidase homolog 2 (LOXL2) (UniProt Q9Y4K0 26-774)
T3 construct: lysyl oxidase homolog 2, UniProtKB Q9Y4K0; also called lysyl oxidase-like 2; source: bought: R&D Systems, 2639-AO
T3 sequence (looked up): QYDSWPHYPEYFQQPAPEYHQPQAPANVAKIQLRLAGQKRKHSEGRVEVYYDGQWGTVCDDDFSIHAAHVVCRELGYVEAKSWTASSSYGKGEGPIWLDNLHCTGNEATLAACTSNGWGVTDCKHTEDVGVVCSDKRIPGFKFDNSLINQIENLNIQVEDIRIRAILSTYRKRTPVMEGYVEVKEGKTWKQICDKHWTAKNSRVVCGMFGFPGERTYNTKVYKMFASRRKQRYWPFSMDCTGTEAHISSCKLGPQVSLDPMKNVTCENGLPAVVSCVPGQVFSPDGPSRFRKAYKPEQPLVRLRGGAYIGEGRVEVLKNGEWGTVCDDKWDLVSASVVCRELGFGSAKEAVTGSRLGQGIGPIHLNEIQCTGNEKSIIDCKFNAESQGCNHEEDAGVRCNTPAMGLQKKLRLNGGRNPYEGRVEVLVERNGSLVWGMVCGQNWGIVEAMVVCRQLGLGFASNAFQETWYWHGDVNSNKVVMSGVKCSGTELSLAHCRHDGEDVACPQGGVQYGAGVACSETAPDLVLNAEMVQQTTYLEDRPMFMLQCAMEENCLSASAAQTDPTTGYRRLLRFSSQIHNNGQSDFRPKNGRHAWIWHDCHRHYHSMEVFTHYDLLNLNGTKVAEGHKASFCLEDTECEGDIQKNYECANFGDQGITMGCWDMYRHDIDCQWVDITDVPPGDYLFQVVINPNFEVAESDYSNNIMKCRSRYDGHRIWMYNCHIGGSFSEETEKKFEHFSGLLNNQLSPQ

T4: Matrix metalloproteinase-2 (MMP-2) (UniProt P08253 30-660)
T4 construct: matrix metalloproteinase-2, UniProtKB P08253, residues 30-660; source: bought: R&D Systems, 902-MPN
T4 sequence (looked up): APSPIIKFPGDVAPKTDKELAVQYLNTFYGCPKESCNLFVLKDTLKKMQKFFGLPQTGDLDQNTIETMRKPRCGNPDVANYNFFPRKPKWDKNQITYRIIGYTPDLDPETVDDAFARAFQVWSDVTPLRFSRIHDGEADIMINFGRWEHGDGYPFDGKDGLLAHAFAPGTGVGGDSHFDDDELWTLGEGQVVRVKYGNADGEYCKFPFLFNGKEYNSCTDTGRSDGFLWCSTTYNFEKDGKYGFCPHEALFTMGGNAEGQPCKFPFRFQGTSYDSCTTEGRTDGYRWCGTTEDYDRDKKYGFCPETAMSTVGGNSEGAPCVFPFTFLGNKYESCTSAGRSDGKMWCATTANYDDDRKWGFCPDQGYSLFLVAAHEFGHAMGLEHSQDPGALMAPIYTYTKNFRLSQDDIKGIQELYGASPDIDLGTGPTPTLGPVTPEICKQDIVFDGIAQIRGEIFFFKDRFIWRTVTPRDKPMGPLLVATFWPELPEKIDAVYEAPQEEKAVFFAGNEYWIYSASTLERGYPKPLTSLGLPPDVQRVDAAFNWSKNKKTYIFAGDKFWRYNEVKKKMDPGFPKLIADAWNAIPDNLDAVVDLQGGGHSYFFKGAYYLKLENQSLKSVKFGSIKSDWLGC

T5: Dermatopontin (UniProt Q07507 19-201)
T5 construct: dermatopontin, UniProtKB Q07507; source: bought: Abcam, ab158310
T5 sequence (looked up): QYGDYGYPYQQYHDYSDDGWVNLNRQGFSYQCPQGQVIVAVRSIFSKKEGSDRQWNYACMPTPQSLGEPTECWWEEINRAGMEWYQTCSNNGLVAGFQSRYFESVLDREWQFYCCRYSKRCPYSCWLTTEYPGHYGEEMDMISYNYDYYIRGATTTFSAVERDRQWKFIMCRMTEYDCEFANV

T6: Collagen VI (vWF1 domain) (UniProt P12109 20-256)
T6 construct: collagen alpha-1(VI) chain, UniProtKB P12109, residues 20-256 (vWF1 domain); also called Collagen VI alpha 1 chain (vWF1 domain); source: Expressed in the laboratory (PMID 24117177)
T6 sequence (looked up): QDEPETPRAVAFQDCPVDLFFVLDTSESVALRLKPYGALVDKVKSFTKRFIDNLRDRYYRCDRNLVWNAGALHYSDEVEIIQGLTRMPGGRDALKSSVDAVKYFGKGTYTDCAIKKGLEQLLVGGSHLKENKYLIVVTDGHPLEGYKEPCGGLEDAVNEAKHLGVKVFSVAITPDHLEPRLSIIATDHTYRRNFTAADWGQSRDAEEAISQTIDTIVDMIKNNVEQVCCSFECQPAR

B1: Epidermal growth factor (EGF) (ligand, UniProt P01133 971-1023, looked up)
chain: NSDSECPLSHDGYCLHDGVCMYIEALDKYACNCVVGYIGERCQYRDLKWWELR
notes: epidermal growth factor, feature PRO_0000007541 of pro-epidermal growth factor, UniProtKB P01133; source: bought: Sigma-Aldrich, E9644
B2: Fibronectin fragment III1-C (anastellin) (domain or fragment)
chain: not shown
notes: anastellin, fragment III1-C of fibronectin, UniProtKB P02751, residues 631-702; source: bought: Sigma-Aldrich, F3542
B3: Lysyl oxidase propeptide (LOX-PP) (Pro24Leu) (domain or fragment, human, UniProt P28300 22-168, looked up)
chain: APLAAGQQQPPREPPAAPGAWRQQIQWENNGQVFSLLSLGSQYQPQRRRDPGAAVPGAANASAQQPRTPILLIRDNRTAAARTRTAGSSGVTAGRPRPTARHWFQAGYSTSRAREAGASRAENQTAPGEVPALSNLRPPSRVDGMVG
modifications: N-linked glycans (removed by PNGase F)
notes: propeptide of human lysyl oxidase, UniProtKB P28300, residues 22-168; expressed from the pCEP-Pu-BM40 vector; also called propeptide of human lysyl oxidase; source: HEK293-EBNA, purified (anti-FLAG resin)

Legend:
Assay in all cases: SPR; SPR imaging (SPRi, Biacore Flexchip): partners spotted in triplicate on a bare gold chip at 0.06 to 1 mg/ml; purified LOX-PP injected at 2 µM and recirculated for 20 min; PBS with 0.05% Tween 20, 25 °C
Settings in all cases: both partners purified
[1] = target: B3
Fibromodulin = target: T1, Fibromodulin
[2] = target: T2, Transglutaminase-2 (TG-2), mutant …
[3] = target: T3, Lysyl oxidase homolog 2 (LOXL2)
[4] = target: T4, Matrix metalloproteinase-2 (MMP-2)
Dermatopontin = target: T5, Dermatopontin
[5] = target: T6, Collagen VI (vWF1 domain)

Binder | binding result [1] | binding result (Fibromodulin) | binding result [2] | binding result [3] | binding result [4] | binding result (Dermatopontin) | binding result [5]
B1 | binds | – | – | – | – | – | –
B2 | binds | – | – | – | – | – | –
B3 | – | binds | binds | binds | binds | binds | binds
